Test results taken from article PMC11014985, “TCTP regulates genotoxic stress and tumorigenicity via intercellular vesicular signaling” (EMBO Reports, 2024).

Target: DDX3-DQAD (human) (UniProt O00571)

increase of the let-7c-5p signal bound to DDX-DQAD on adding TCTP (500 nM TCTP, 300 nM DDX3-DQAD, 50 nM biotinylated let-7c-5p, non-denaturing gel), in the presence of AMP-PNP: 200%
increase of the let-7c-5p signal bound to DDX-DQAD on adding TCTP (500 nM TCTP, 300 nM DDX3-DQAD, 50 nM biotinylated let-7c-5p, non-denaturing gel), in the presence of ATP: 50%
B1: TCTP (translationally controlled tumor protein) (natural protein)
chain: MIIYRDLISHDEMFSDIYKIREIADGLCLEVEGKMVSRTEGNIDDSLIGGNASAEGPEGEGTESTVITGVDIVMNHHLQETSFTKEAYKKYIKDYMKSIKGKLEEQRPERVKPFMTGAAEQIKHILANFKNYQFFIGENMNPDGMVALLDYREDGVTPYMIFFKDGLEMEKC
